Numbering of substitutions follows the chain as printed.
T1: recombinant human Vascular Adhesion Protein-1 (rhVAP-1), purified from CHO cells (human, UniProt Q16853 1-763, limits assumed)
T1 construct: also called recombinant human VAP-1
T1 sequence (looked up): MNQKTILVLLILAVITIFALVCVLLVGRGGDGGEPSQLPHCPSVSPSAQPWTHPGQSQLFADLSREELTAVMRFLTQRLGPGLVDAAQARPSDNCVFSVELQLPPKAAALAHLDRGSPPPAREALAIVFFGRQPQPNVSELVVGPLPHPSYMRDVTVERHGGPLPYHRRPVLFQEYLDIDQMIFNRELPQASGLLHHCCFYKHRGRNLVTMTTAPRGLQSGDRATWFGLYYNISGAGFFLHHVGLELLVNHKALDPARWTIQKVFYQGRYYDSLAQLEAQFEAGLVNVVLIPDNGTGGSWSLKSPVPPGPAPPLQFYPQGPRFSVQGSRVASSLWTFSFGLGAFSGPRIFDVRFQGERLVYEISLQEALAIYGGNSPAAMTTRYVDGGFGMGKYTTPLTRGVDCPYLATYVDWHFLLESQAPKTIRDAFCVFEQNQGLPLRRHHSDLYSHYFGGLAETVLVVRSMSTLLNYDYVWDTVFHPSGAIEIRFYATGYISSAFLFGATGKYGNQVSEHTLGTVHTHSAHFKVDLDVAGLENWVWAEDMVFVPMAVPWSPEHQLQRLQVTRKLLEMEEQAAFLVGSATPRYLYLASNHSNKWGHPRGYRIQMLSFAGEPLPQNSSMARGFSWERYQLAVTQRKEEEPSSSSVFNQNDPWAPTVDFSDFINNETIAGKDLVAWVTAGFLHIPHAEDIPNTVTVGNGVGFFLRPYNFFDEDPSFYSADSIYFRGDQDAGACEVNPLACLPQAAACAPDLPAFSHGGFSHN

B1: fully human anti-VAP-1 monoclonal antibody 8C10 (hybridoma-derived) (antibody, human IgG1, V domains shown)
VH: QVQLVESGGGVVQPGRSLRLSCAASGFTFFSYAMHWVRQTPGKGLEWVAVIWFDGSNENYVDSVKGRFTISRDNSKNTLYLQMNTLRAEDTAVYYCARDAWSYFDYWGQGTLVTVSS
VL: VIQLTQSPSSLSASVGDRVTITCRASQGISRALAWYQQKPGKGPKLLIYDASSLESGVPSRFSGSGSGTDFTLTISSLQPEDFATYYCQQFNSYPLTFGGGTKVEIK
B2: recombinant fully human anti-VAP-1 antibody r8C10 (BTT-1023) (antibody, human IgG4 S228P, kappa, V domains shown)
VH: B1 VH
VL: VIQLTQSPSSLSASVGDRVTITCRASQGISRALAWYQQKPGKGPKLLIYDASSLESGVPSRFSGSGSGTDFTLTISSLQPEDFATYYCQQFNSYPLTFGGGTKVEIKR
notes: also called recombinant 8C10
B3: fully human anti-VAP-1 monoclonal antibody 3F10 (hybridoma-derived) (antibody, human IgG1, V domains shown)
VH: B1 VH with F30S, T40A, I51L, N59D, V61A, T85S, A100G, S102G
VL: B1 VL with V1A, G43A, S53N, S56R, Y94F
B4: fully human anti-VAP-1 monoclonal antibody 4B3 (hybridoma-derived) (antibody, human IgG1, V domains shown)
VH: EVQLVQSGGGLVHPGGSLRLSCAGSGFPVSSYGMHWVRQAPGKGLEWVSAIGVGGGTYHVDSVKGRFTISRDNAKNSLYLQMNSLRAGDMAVYYCARDPGFGEVYFDYWGQGTLVTVSS
VL: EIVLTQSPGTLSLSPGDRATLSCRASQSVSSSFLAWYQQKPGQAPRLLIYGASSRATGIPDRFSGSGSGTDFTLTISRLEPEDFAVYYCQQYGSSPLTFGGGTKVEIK
B5: fully human anti-VAP-1 monoclonal antibody 8A4 (hybridoma-derived) (antibody, human IgG1, V domains shown)
VH: EVQLVESGGGLVQPGGSLRLSCAASGFIFSNYWMSWVRQAPGKGLEWVANIKQDGSEKYYVDSVRGRFTVSRDNAKNSLYLQMNSLRAEDTAVYYCARDYFGSGTYFFYFDYWGQGTLVTFSS
VL: EIVLTQSPATLSLSPGERATLSCRASQSVSSYLAWYQQKPGQAPRLLIYDASNRATGIPARFSGSGSGTDFTLTISSLEPEDFAVYYCQQRSNWPLTFGGGTKVEIK
B6: fully human anti-VAP-1 monoclonal antibody 5F12 (hybridoma-derived) (antibody, V domains shown)
VH: QVQLVDSGGDVVQPGRSLRLSCAASGFSFSRSGIHWVRQAPGKGLEWVAVIWYDGIYKYYADSVKGRFTISRDNSKNTLYLQMNSLRAEDTAVYYCAREKNWGIDYWGQGTLVTVSS
VL: DIQMTQSPSSLSASVGDRVTITCRASQGISSWLAWYQQKPEKAPKSLIYGASSLQSGVPSRFSGSGSGTDFTLTISSLQPEDFATYYCQQYNSYPRTFGQGTKVEIK

Legend:
[1] = target: T1, recombinant human Vascular Adhesion …; test: time-resolved immunofluorometric assay, plate coated with rhVAP-1, europium-conjugated anti-human antibody detection
Protocol: A time-resolved immunofluorometric assay was used quantitatively to examine the binding of 5F12, 4B3, 3F10, 8A4 and 8C10 to rhVAP-1. A microtiter plate was coated with rhVAP-1 and then blocked with bovine serum albumin solution. An amount of antibody between 2 and 4320 ng/ml was subsequently added to bind to rhVAP-1 and the bound antibody detected by a europium-conjugated mouse anti-human antibody (Perkin Elmer Inc.). The label was detected by measuring the time-resolved fluorescence (VICTOR³™ multilabel counter, PerkinElmer Inc.) at 615 nm. The fluorescence counts directly correlate with how much antibody was bound to its target. The sample data were then analyzed in comparison to the standard curve of a reference.

[2] = target: T1, recombinant human Vascular Adhesion …; test: Biacore SPR, BTT-1023 captured on biotinylated protein G' on a streptavidin chip, rhVAP-1 as analyte
Protocol: Constant amounts of rhVAP-1 were used as an analyte for saturating concentration of mAbs (ligands). Experiments were performed using BIALITE® equipment (BIACORE® AB) and the data analyzed using Biacore software.

[3] = target: T1, recombinant human Vascular Adhesion …; test: time-resolved immunofluorometric assay, plate coated with rhVAP-1, europium-conjugated anti-human antibody detection; remark: listed apart in the source
Protocol: A microtiter plate was coated with rhVAP-1 and then blocked with bovine serum albumin solution. […] The label was detected by measuring the time-resolved fluorescence (VICTOR³™ multilabel counter, PerkinElmer Inc.) at 615 nm. […] The sample data were then analyzed in comparison to the standard curve of a reference.

Binder	Kd [1]	Kd [2]	Kd [3]
B1	0.21 nM		
B2		0.13 nM	0.38 nM
B3	0.25 nM		
B4	0.31 nM		
B5	0.28 nM		
B6	0.65 nM		
